Results from patent publication US11649285B2.

What was measured:
[1] = molecular target: human VISTA, native (on anti-CD3-activated human T cells and PBMCs) (human (homo sapiens))
[2] = molecular target: human VISTA, native (on anti-CD3-activated human T cells and PBMCs) (human (homo sapiens)); remark: listed apart in the source

B1: Recombinant human VSIG3 Fc Chimera (Fc fusion)
chain: LEVSESPGSIQVARGQTAVLPCTFTTSAALINLNVIWMVTPLSNANQPEQVILYQGGQMFDGAPRFHGRVGFTGTMPATNVSIFINNTQLSDTGTYQCLVNNLPDIGGRNIGVTGLTVLVPPSAPHCQIQGSQDIGSDVILLCSSEEGIPRPTYLWEKLDNTLKLPPTATQDQVQGTVTIRNISALSSGLYQCVASNAIGTSTCLLDLQVISPQPRNIGLIAG
ED50 of inhibition of MIP-1 alpha secretion, anti-CD3-activated human PBMCs (Quantikine ELISA) [1]: 0.5 µg/mL | ED50 of inhibition of Rantes secretion, anti-CD3-activated human PBMCs (Quantikine ELISA) [1]: 0.5 µg/mL | concentration at which inhibition of CXCL11 secretion occurred, anti-CD3-activated human PBMCs (Quantikine ELISA) [1]: 2 µg/mL | concentration at which inhibition of IL-17 secretion occurred, anti-CD3-activated human PBMCs (Quantikine ELISA) [1]: 10 µg/mL | division of CFSE-labeled human CD3+ T cells with plate-bound anti-CD3 and rhVSIG-3 10 µg/mL, flow cytometry (% CD3+ T cells dividing (72 hours)) [2]: < 25
